The record followed here is PMC8496864.

What is called stoichiometry N is a count of units in the complex or per binding partner.

Assay [1] addresses CwlDΔ25-His6 (soluble domain of C. difficile CwlD amidase, His-tagged) (Clostridioides difficile). As to the kind of experiment: SEC; Superdex 200 Increase 10/300 GL; 200 mM NaCl, 10 mM Tris HCl pH 7.5, 5% glycerol, 1 mM DTT; fractions on SDS-PAGE with Coomassie; complexes also run after 1 h at 4°C with fivefold excess ZnCl2 or 1 mM EDTA.
Assay [2] concerns the target CwlD_(R169Q)-His6 (Clostridioides difficile). As to the kind of experiment: pull-down; co-affinity purification: His-tagged CwlD and untagged GerS co-produced in E. coli, captured on Ni-NTA agarose (500 mM NaCl, Tris pH 7.5, 15 mM imidazole, 10% glycerol, 2 mM ß-mercaptoethanol), eluted with 200 mM imidazole, Coomassie staining.
In assay [3] the target is CwlD_(R169D)-His6 (Clostridioides difficile). Described as above.
The target in assay [4] is GerSΔ22 (soluble domain of C. difficile GerS lipoprotein, untagged) (Clostridioides difficile). As to the kind of experiment: crystal structure; SEC-purified CwlD:GerS complex; hanging drop at 18°C, 50 mM BisTris pH 7.5, PEG 3350 12–18%, 5% glycerol, 0.25 M ammonium nitrate; 2.4 Å.
The target in assay [5] is CwlD_(E199A)-His6 (Clostridioides difficile). As to the kind of experiment: SEC; Superdex 200 Increase 10/300 GL; 200 mM NaCl, 10 mM Tris HCl pH 7.5, 5% glycerol, 1 mM DTT; fractions on SDS-PAGE with Coomassie; complexes also run after 1 h at 4°C with fivefold excess ZnCl2 or 1 mM EDTA. A general note: In gel filtration, larger molecules generally elute earlier.
The target of assay [6] is CwlD_(E65A)-His6 (Clostridioides difficile). The description is as above.
Assay [7] has as its target CwlD_(H49A)-His6 (Clostridioides difficile). Described as above.
Assay [8] concerns the target FLAG-tagged CwlD_(R169D) (Clostridioides difficile). As to the kind of experiment: co-IP; lysates of C. difficile sporulating for 22 h; FLAG IP buffer (50 mM Tris pH 7.5, 150 mM NaCl) with 0.1% NP-40; anti-FLAG magnetic resin, 1 h at room temperature; eluted with FLAG peptide; GerS detected by anti-GerS blot.
Assay [9] has as its target FLAG-tagged CwlD_(E199A) (Clostridioides difficile). The description is as above.
Assay [10] deals with FLAG-tagged CwlD_(H49A) (Clostridioides difficile). Described as above.
For assay [11], the target named is GerSΔ22-His6 (Clostridioides difficile). As to the kind of experiment: dynamic light scattering; DynaPro Protein Solutions DLS instrument; purified GerS, CwlD and SEC-purified CwlD:GerS complex.
For assay [12] the target is unchanged. As to the kind of experiment: SEC; Superdex 200 Increase 10/300 GL; 200 mM NaCl, 10 mM Tris HCl pH 7.5, 5% glycerol, 1 mM DTT; fractions on SDS-PAGE with Coomassie; complexes also run after 1 h at 4°C with fivefold excess ZnCl2 or 1 mM EDTA.
Assay [13] deals with CwlDΔ25-His6 (soluble domain of C. difficile CwlD amidase, His-tagged) (Clostridioides difficile). As to the kind of experiment: pull-down; co-affinity purification: His-tagged CwlD and untagged GerS co-produced in E. coli, captured on Ni-NTA agarose (500 mM NaCl, Tris pH 7.5, 15 mM imidazole, 10% glycerol, 2 mM ß-mercaptoethanol), eluted with 200 mM imidazole, Coomassie staining.

As to “CwlDΔ25-His6 (soluble domain of C. difficile CwlD amidase, His-tagged) (domain or fragment)”, the stoichiometry N in [1] was 2.
On to “GerSΔ22 (soluble domain of C. difficile GerS lipoprotein, untagged) (domain or fragment)”, for which the reduction of GerS co-purification relative to the wild-type complex in assay [2] and in [3] was 90% each time. Further, the stoichiometry N in [4] worked out at 2; in assay [5] it was 1; in assay [6], 1; in [7] it was 1; in [1], 1.
As to “GerS, cleaved form (GerS-c), untagged, in sporulating C. difficile (natural protein)”, the fold reduction of GerS pulled down relative to wild-type FLAG-tagged CwlD in assay [8] and in assay [10] was 5 fold throughout. The same substance returned a decrease of GerS pulled down relative to wild-type FLAG-tagged CwlD in assay [9] of 40%.
Regarding GerSΔ22-His6 (domain or fragment), the stoichiometry N in [11] and in assay [12] was 2 throughout.
For the substance “GerS_(D106A), untagged (domain or fragment)”, in [13], the reduction of GerS co-purification relative to the wild-type complex turned out to be 90%.
Still for that read-out and setting: in the case of “GerS_(D106R), untagged (domain or fragment)” it was 90%.
